Test in all cases: intrinsic tryptophan fluorescence titration; no ATP; Fluorescence titration (ex 295 nm, em 340 nm), one-site saturation fit; buffer, salt, pH and temperature not given in the material. Wild-type ADAAD Kd values are cited from ref 24 and not listed
Holding throughout (details): protein: recombinant; tags: His (Ni-NTA, pET-14b); hairpin

One data set deals with T1, ADAAD F507W (Bos taurus (bovine), UniProt Q9TTA5 221-940, F727W).
T1 sequence: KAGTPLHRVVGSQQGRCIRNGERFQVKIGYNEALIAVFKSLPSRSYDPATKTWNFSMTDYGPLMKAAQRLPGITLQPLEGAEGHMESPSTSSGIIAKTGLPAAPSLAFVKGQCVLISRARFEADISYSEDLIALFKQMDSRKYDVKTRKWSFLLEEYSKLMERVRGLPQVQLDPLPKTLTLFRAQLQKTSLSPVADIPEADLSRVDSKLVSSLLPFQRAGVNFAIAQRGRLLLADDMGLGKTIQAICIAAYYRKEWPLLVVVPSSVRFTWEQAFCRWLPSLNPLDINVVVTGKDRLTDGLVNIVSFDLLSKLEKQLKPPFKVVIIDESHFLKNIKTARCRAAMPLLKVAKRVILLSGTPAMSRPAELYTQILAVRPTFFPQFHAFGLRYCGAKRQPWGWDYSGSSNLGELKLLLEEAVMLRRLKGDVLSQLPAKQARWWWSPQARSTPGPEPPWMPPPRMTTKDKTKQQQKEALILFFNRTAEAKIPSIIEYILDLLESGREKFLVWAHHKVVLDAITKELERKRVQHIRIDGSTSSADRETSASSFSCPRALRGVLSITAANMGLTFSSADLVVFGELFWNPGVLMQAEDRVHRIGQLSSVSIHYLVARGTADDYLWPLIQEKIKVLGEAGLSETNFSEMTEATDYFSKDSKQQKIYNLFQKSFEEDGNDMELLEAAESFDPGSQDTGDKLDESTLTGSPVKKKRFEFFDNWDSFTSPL

The target in a further data set is T2, ADAAD F507A (Bos taurus (bovine), UniProt Q9TTA5 221-940, F727A).
T2 sequence: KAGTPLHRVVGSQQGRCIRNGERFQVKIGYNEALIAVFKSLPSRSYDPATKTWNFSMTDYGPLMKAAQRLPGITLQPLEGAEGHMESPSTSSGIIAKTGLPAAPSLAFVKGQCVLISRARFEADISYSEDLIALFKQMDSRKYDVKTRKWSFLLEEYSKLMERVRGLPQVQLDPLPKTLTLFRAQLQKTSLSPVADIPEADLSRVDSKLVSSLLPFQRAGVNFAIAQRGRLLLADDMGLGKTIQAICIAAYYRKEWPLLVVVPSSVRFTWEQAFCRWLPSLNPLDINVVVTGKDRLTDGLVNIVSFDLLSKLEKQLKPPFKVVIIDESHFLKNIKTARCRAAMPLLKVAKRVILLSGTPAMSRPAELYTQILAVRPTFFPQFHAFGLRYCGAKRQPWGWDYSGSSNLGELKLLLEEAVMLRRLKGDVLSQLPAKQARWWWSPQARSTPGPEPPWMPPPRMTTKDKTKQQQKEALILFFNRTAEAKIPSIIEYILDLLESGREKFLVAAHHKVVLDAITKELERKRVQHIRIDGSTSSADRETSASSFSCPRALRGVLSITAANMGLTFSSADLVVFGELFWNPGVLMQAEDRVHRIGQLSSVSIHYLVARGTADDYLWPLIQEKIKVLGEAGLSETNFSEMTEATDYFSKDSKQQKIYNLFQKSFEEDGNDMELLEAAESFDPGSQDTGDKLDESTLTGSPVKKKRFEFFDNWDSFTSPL

The next data set has as its target T3, ADAAD R595K (Bos taurus (bovine), UniProt Q9TTA5 221-940, R815K).
T3 sequence: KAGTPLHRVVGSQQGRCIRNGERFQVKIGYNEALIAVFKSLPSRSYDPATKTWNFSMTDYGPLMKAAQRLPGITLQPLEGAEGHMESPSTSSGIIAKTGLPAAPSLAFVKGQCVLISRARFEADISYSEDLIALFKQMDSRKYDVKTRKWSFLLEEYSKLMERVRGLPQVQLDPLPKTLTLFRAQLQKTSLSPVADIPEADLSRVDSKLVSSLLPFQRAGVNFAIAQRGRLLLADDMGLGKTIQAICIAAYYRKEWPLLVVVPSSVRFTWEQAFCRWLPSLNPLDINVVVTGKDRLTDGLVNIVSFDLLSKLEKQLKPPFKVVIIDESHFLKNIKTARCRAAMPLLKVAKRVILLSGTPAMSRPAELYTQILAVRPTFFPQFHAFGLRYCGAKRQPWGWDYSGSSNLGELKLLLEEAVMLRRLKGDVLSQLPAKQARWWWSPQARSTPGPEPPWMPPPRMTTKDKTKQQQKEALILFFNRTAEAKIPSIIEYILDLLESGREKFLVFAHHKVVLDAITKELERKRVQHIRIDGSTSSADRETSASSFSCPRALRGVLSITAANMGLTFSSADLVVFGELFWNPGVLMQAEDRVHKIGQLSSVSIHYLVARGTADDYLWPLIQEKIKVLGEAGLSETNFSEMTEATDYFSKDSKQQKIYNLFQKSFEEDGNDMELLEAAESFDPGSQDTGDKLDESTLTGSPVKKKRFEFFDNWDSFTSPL

The term Kd denotes the free concentration of one partner at which half of the binding sites on the other are occupied at equilibrium, for simple one-to-one binding. As for GCGCAATTGCGCTCGACGATTTTTTAGCGCAATTGCGC (structured_DNA) [slDNA (stem-loop DNA)], the Kd was found to be 44.8 ± 9 nM in the data set with ADAAD F507W, 19 ± 4.5 nM in the data set with ADAAD F507A and 25.1 ± 7.4 nM with ADAAD R595K.

The record behind these values is publication PMC6019379, “RecA-like domain 2 of DNA-dependent ATPase A domain, a SWI2/SNF2 protein, mediates conformational integrity and ATP hydrolysis” (Bioscience Reports, 2018).
